Where two headings read alike, the source gives them in different places. Ends that are not written are not given here. * marks the point of attachment. Biotin = O=C1N[C@H]2[C@H](CS[C@H]2CCCCC(=O)*)N1
T1: synthetic peptide hFn14 sub-domain 3 (human, cysteine pairing not given here)
T1 construct: also called sub-domain 3 peptide
T1 peptide: ASCRARPHSDFCLGK(Biotin)

T2: synthetic peptide hFn14 sub-domain 1p (human, biotin on the added C-terminal lysine)
T2 construct: synthesised by GLBiochem
T2 peptide: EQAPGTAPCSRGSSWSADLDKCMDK

T3: synthetic peptide hFn14 sub-domain 2 (human, biotin on the added C-terminal lysine; disulfide bonds as in the solution structure of He et al. 2009)
T3 construct: also called sub-domain 2 peptide
T3 peptide: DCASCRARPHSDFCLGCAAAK

T4: human Fn14 (human, UniProt Q9NP84 28-129)
T4 sequence: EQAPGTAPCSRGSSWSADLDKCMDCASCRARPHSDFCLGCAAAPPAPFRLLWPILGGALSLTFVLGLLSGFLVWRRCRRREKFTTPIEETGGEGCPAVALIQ

T5: synthetic peptide Sub-domain 2 Cys 3&6 ΔS (human, not fully specified; biotin on the added C-terminal lysine)
T5 construct: also called sub-domain 2 cys3&6ΔS mutant
T5 peptide: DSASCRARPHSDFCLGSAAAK

T6: Histidine tagged mouse Fn14 extracellular domain (mouse, UniProt Q9CR75 28-80)
T6 construct: extracellular domain; also called mFn14; not shown: (His)6 tag from pET-15b
T6 sequence (looked up): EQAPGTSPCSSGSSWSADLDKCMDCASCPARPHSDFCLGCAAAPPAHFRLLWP


Key:
[1] = biological target: T1, synthetic peptide hFn14 sub-domain 3; experiment: ELISA on biotinylated sub-domain 3 peptide, mAb at 0.2 ug/ml
Description: An additional lysine residue was added to the C-terminus in order to attach a biotin moiety and to enable the peptides to bind to neutravidin coated plates (Pre-blocked; Pierce). For these experiments, a control peptide with a biotin at the C-terminus was used as a negative control and isotype control antibodies were also used.
(§1) The ELISA was performed essentially according to the manufacturer's recommended protocol (Pierce). Briefly, peptide was coated onto wells (in duplicate) at 1-10 μg/ml for 2 hours at room temperature. Wells were washed in PBS/0.05% Tween 20/0.1% BSA 3 times and dilutions of each antibody were added in wash buffer for 1 hour with gentle agitation. After another three washes anti-mouse HRP-conjugated to horse radish peroxidase (HRP; Chemicon) was added at 1/1000 dilution for 1 hour shaking. Finally, after 4 further washes the plate was developed using TMB (3,3′,5,5′-tetramethylbenzidine) substrate (Pierce), and the reaction was stopped using 2M H2SO4 solution. Optical density at 450 nm was quantified using a Spectromax absorbance spectrophotometer.
The reactivity of CRCBT-06-001 CRCBT-06-002, CRCBT-06-003, CRCBT-06-004, CRCBT-06-005, CRCBT-06-006 and CRCBT-06-007 with sub-domain 3 was lower than for sub-domain 2, indicating this region may be a partial epitope for these antibodies. However, the differences in binding to this region could reveal subtle variations in the contact regions of the antibodies with hFn14. The order of binding from strongest to weakest was CRCBT-06-005, CRCBT-06-002, CRCBT-06-001, CRCBT-06-006, CRCBT-06-007 and ITEM-1. The relative binding of each antibody to sub-domain 3 at a single point in the linear region of the curves was measured at 0.2 µg/ml (FIG. 21C). […] This could indicate the epitope of ITEM-1 may differ slightly to the CRCBT antibodies based on weaker interaction with surface exposed residues in sub-domain 3.

[2] = biological target: T2, synthetic peptide hFn14 sub-domain 1p; experiment: ELISA on biotinylated synthetic peptide
Description: (§2) Peptides representing sub-domains 1p, 2 and 3 of hFn14 (FIG. 20, Panels B and C and FIG. 14, Panel A) and for disulfide pair mutants (Cys3&6ΔS and Cys4&5ΔS; FIG. 20 Panels D and E) were synthesized by GLBiochem Ltd. (Shanghai, China) and the cysteine residues for disulfide bonds were chosen as described in the solution structure by He et al., (2009). An additional lysine residue was added to the C-terminus in order to attach a biotin moiety and to enable the peptides to bind to neutravidin coated plates (Pre-blocked; Pierce). For these experiments, a control peptide with a biotin at the C-terminus was used as a negative control and isotype control antibodies were also used.
as §1

[3] = biological target: T3, synthetic peptide hFn14 sub-domain 2; experiment: ELISA on biotinylated sub-domain 2 peptide, mAb at 5 ng/ml
Excerpt: FIG. 21B is a graphical representation showing reactivity of anti-Fn14 mAbs CRCBT-06-001, CRCBT-06-002, CRCBT-06-003, CRCBT-06-004, CRCBT-06-005, CRCBT-06-006, CRCBT-06-007 and ITEM-1 with a synthetic peptide representing sub-domain 2 of Fn14. Plates were coated with sub-domain 2 peptide and various dilutions of antibody were allowed to bind, bound antibody was detected with anti-mouse HRP and TMB substrate. The average of duplicate readings are plotted, error bars represent standard deviations. The ELISA was repeated to ensure consistent results. The vertical line at 5 ng/ml within the linear part of the curves is the point at which a comparison of the reactivity of each mAb was analyzed.
as §2
as §1, with “Finally, after 4 further washes the plate was developed using TMB (3,3′,5,5′-tetramethylbenzidine) substrate (Pierce), and the reaction was stopped using 2M H2SO4 solution.” left out

[4] = biological target: T7, phage-displayed hFn14 extracellular domain (human, UniProt Q9NP84 28-77); experiment: phage ELISA, antibody on plate, 10-fold phage dilutions
T7 construct: also called FN14 Ectodomain; FN14 Ecto
Description: Each normalized preparation was 10-fold serially diluted and added in solution to the MAbs attached to the solid phase. ELISAs shown here were performed simultaneously with the same preparations of phage. Binding was detected using HRP-conjugated anti-M13 phage polyclonal IgG and TMB substrate. Optical density at 450 nm was quantified using a Spectramax spectrophotometer. Error bars for each dilution represent the standard deviation of duplicate assays. […] ELISAs were performed under similar conditions to those described for Panel A. Methods according to Epitope mapping using phage expressed Fn14—Method 1.
The wells of Maxisorp immunoplates (Nunc) were coated overnight at 4° C. with the target monoclonal antibodies or recombinant Tweak-Fc at a concentration of 2 μg/mL in PBS. MAb 5G8 was used as a negative control for ELISA plates coated with tested antibodies. Recombinant Fc alone was used as a negative control for ELISA plates coated with recombinant Tweak-Fc. […] 10-fold serial dilutions of phage were made using 5% skim milk/PBS solution in 2 ml-well microtiter plates and phage dilutions were added to the coated, blocked ELISA plates for 1 hr, with vigorous shaking at room temperature. Phage were subsequently removed from the wells and the ELISA plates were washed 4× with PBS/0.05% Tween 20. […]

[5] = biological target: T4, human Fn14; experiment: cell-based or functional assay
[6] = biological target: T4, human Fn14; experiment: cell-based or functional assay; remark: listed apart in the source
[7] = biological target: T5, synthetic peptide Sub-domain 2 Cys 3&6 …; experiment: peptide ELISA: biotinylated synthetic peptide on neutravidin plate, antibody titrated (legend: 0.1-0.0001 µg/ml; axis 'Log (c)'), anti-mouse HRP, TMB, OD 450 nm
[8] = biological target: T7, phage-displayed hFn14 extracellular …; experiment: phage ELISA, antibody on plate, 10-fold phage dilutions; remark: listed apart in the source
Description: Each normalized preparation was 10-fold serially diluted and added in solution to the MAbs attached to the solid phase. All ELISAs shown were performed simultaneously with the same preparations of phage. Binding was detected using HRP-conjugated anti-M13 phage polyclonal IgG and TMB substrate. Optical density at 450 nm was quantified using a Spectramax spectrophotometer. Error bars for each dilution represent the standard deviation of duplicate assays. In this figure, reference to “FN14 Ecto” is a reference to the extracellular domain of hFn14. Methods according to Epitope mapping using phage expressed Fn14—Method 1.
The wells of Maxisorp immunoplates (Nunc) were coated overnight at 4° C. with the target monoclonal antibodies or recombinant Tweak-Fc at a concentration of 2 μg/mL in PBS. MAb 5G8 was used as a negative control for ELISA plates coated with tested antibodies. Recombinant Fc alone was used as a negative control for ELISA plates coated with recombinant Tweak-Fc. […] 10-fold serial dilutions of phage were made using 5% skim milk/PBS solution in 2 ml-well microtiter plates and phage dilutions were added to the coated, blocked ELISA plates for 1 hr, with vigorous shaking at room temperature. […] Optical density at 450 nm was quantified using a Spectramax absorbance spectrophotometer.

[9] = biological target: T8, Histidine tagged hFn14 extracellular domain, bacterially expressed (human, UniProt Q9NP84 28-77); experiment: ELISA on coated His-tagged protein
T8 construct: also called recombinant Fn14; recombinant human Fn14; not shown: (His)6 tag from pET-15b

[10] = biological target: T6, Histidine tagged mouse Fn14 …; experiment: ELISA with purified His-tagged mouse Fn14; x axis 'Log (c)' without unit, µg/ml by the legend
[11] = biological target: T9, His tagged hFn14 extracellular region mutant R56P (human, UniProt Q9NP84 28-77); experiment: ELISA with purified His-tagged hFn14 R56P; x axis 'Log (c)' without unit, µg/ml by the legend
T9 construct: also called R56P mutant; not shown: (His)6 tag

[12] = biological target: T10, His tagged hFn14 extracellular region mutant R56A (human, UniProt Q9NP84 28-77); experiment: ELISA with purified His-tagged hFn14 R56A; x axis 'Log (c)' without unit, µg/ml by the legend
T10 construct: not shown: (His)6 tag

[13] = biological target: T11, His tagged hFn14 extracellular region mutant R56K (human, UniProt Q9NP84 28-77); experiment: ELISA with purified His-tagged hFn14 R56K; x axis 'Log (c)' without unit, µg/ml by the legend
T11 construct: not shown: (His)6 tag

Row | Binder | % decrease in binding compared with CRCBT-06-005 [1] | binding result [2] | % decrease in binding compared to CRCBT-06-001 and CRCBT-06-002 [3] | binding result [4] | NFκB-GFP reporter in HEK293T cells [5] | % Agonist, IL-8 secretion by A375 cells [6] | % Antagonist, IL-8 secretion by A375 cells [6] | binding result [7] | binding result [8] | binding result [9] | binding result [10] | binding result [11] | binding result [12] | binding result [13]
1 | CRCBT-06-007 (antibody, IgG2b, V domains shown) VH: QVKLEESGGVLVQPGGSMKLSCIASGFSFSKYWMNWVRQSPEKGLEWVAEIRVKSNNYATHYAESVKGRFIISRDDSKSSVYLQMNNLRAEDTGIYYCTKSYADYFDYWGQGTTLTVSS VL: DIVMTQSTASLAVSLGQRATISCRASQSVSTSSYSYMHWYQQKPGQPPKVLIKYASNLESGVPARFSGSGSGTDFTLNIHPVEEEDAATYYCQHSWEIPYTFGGGTKLEIKR | 73% | no binding | 48% | binds | 1 µg/mL | 16% | 89% | – | – | – | – | – | – | –
2 | CRCBT-06-005 (antibody, IgG2b, V domains shown) VH: QVQLQESGGGLVQPGGSMKLSCVASGFTFSYYWMNWVRQSPEQGLEWIAEIRLQSNDYPTHYAESVKGRFTISRDDSKNSVYLQMNNLRPEDTGIYYCACRYADYFDHWGQGTTLTVSS VL: DIVLTQTTASLTVSLGQRATISCRASQSVSTSTYSYMHWYQQTPGQPPTVLIKYASSLESGVPTRFSGSGSGTDFTLNIHPVEEEDTATYYCQHSWEIPYTFGGGTKLEIKR | – | no binding | 40% | – | 1 µg/mL | 26% | 92% | binds | binds | binds | binds | binds | binds | binds
3 | CRCBT-06-006 (antibody, IgG2a, V domains shown) VH: QVQLQESGGGLVQPGGSMKLSCVASGFTFSYYWMNWVRQSPEQGLEWIAEIRLQSNDYPTHYAESVKGRFTISRDDSKNSVYLQMNNLRPEDTGIYYCACRYADYFDHWGQGTTLTVSS VL: DIVITQSPASLTVSLGQRATISCRASQSVSTSTYSYMHWYQQTPGQPPTVLIKYASSLESGVPTRFSGSGSGTDFTLNIHPVEEEDTATYYCQHSWEIPYTFGGGTKLEIKR | 73% | no binding | 76% | – | 1 µg/mL | 106% | – | – | binds | – | – | – | – | –

— patent publication US20200239586A1 (LA TROBE UNIVERSITY, published 2020)
